Experimental data published in patent US6602659.

Biological target: human ST receptor protein (human) (UniProt P25092)
Assay: receptor binding on colorectal tumor samples (local and metastasized); method and ligand not described

UniProt P25092, sequence (P25092 other isoform, or with tags, fused parts or gaps limits assumed): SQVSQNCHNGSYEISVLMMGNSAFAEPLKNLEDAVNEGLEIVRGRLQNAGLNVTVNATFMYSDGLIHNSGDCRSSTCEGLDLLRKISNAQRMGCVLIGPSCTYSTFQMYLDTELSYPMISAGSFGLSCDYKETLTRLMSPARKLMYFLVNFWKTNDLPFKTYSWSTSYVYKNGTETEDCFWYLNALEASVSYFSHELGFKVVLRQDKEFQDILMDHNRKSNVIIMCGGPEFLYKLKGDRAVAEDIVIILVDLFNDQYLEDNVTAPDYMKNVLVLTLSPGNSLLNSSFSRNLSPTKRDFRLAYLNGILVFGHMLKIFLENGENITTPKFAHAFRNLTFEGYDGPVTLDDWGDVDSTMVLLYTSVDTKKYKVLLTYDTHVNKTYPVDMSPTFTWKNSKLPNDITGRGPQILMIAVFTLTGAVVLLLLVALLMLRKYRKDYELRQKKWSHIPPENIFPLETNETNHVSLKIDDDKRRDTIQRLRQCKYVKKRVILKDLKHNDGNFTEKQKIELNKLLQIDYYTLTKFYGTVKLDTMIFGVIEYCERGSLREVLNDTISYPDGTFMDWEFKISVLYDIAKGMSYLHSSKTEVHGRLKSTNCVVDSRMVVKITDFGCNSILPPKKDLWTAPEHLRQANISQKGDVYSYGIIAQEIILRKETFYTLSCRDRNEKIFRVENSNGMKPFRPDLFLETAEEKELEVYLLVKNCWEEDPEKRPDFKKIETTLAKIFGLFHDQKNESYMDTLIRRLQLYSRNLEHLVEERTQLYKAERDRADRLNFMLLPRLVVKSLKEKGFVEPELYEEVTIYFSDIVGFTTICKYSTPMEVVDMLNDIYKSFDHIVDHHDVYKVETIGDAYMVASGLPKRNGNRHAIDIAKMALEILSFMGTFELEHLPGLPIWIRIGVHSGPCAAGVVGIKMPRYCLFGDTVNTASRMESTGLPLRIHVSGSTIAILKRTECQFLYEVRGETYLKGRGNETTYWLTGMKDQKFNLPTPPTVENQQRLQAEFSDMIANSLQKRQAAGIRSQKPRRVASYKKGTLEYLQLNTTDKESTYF

## heat-stable toxin (ST) (peptide)
  affinity: < 1e-07
